The experiment has as its target T1, human C3b (human, UniProt P01024 23-667; P01024 749-1663).
T1 construct: Amine coupled to the SPR chips (C1 or CM5); source: bought: Complement Technologies, plasma-derived, used without further purification
Description: SPR; C3b (~250 RU) or C3d (~70 RU) amine coupled to adjacent flow cells of a Biacore C1 chip; FH preincubated with or without a 2-fold molar excess of PspCN injected (90 s, 30 μl/min, 400 s dissociation); 1:1 binding model. Particulars: both partners purified.

Three molecules from PMC4635569, “Complement Evasion Mediated by Enhancement of Captured Factor H: Implications for Protection of Self-Surfaces from Complement” (The Journal of Immunology Author Choice, 2015) can be followed below.

Usually Kd stands for a measure of binding affinity in units of concentration. A low value points to a tighter complex.

T1 sequence (P01024 23-667, chain 1 of 2): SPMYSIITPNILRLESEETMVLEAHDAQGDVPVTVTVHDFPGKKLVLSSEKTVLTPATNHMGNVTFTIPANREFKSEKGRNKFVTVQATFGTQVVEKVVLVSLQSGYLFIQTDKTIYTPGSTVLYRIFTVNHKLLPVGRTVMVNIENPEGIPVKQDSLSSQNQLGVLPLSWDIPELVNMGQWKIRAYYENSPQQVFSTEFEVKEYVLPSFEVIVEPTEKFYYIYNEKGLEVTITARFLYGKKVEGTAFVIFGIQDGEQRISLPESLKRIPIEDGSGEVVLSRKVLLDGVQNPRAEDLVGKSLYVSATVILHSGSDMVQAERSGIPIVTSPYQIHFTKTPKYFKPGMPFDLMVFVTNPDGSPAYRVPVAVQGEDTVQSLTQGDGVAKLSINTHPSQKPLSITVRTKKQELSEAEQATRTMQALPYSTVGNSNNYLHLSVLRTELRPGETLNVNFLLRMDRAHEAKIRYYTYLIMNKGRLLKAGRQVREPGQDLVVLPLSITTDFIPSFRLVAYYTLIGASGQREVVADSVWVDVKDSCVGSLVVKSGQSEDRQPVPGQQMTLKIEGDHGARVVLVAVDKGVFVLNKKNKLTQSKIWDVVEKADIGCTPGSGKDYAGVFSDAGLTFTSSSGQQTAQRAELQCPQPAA
T1 sequence (P01024 749-1663, chain 2 of 2): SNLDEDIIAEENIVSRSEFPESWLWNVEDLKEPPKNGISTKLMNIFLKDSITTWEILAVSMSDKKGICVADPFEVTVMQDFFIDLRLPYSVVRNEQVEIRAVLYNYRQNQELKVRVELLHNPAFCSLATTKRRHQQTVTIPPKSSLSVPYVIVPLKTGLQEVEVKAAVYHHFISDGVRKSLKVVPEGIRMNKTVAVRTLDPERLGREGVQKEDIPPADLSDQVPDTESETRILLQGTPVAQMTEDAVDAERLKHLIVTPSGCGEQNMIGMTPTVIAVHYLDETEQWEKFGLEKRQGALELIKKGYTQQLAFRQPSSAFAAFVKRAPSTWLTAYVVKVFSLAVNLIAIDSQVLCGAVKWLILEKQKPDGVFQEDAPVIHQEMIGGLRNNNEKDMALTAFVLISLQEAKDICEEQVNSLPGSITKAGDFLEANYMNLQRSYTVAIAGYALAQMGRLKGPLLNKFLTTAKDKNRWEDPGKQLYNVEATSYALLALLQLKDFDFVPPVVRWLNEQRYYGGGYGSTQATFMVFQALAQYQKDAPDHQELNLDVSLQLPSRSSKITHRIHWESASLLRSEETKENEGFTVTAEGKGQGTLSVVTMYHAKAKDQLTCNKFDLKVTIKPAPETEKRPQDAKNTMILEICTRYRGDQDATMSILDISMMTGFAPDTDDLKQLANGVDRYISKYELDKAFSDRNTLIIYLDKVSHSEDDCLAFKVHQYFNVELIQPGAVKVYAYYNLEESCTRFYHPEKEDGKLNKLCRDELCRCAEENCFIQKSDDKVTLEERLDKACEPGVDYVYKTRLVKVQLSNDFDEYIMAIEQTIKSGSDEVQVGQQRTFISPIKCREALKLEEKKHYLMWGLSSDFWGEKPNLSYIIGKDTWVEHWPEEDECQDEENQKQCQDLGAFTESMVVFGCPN

B1: plasma-derived human complement factor H (natural protein)
chain: EDCNELPPRRNTEILTGSWSDQTYPEGTQAIYKCRPGYRSLGNVIMVCRKGEWVALNPLRKCQKRPCGHPGDTPFGTFTLTGGNVFEYGVKAVYTCNEGYQLLGEINYRECDTDGWTNDIPICEVVKCLPVTAPENGKIVSSAMEPDREYHFGQAVRFVCNSGYKIEGDEEMHCSDDGFWSKEKPKCVEISCKSPDVINGSPISQKIIYKENERFQYKCNMGYEYSERGDAVCTESGWRPLPSCEEKSCDNPYIPNGDYSPLRIKHRTGDEITYQCRNGFYPATRGNTAKCTSTGWIPAPRCTLKPCDYPDIKHGGLYHENMRRPYFPVAVGKYYSYYCDEHFETPSGSYWDHIHCTQDGWSPAVPCLRKCYFPYLENGYNQNYGRKFVQGKSIDVACHPGYALPKAQTTVTCMENGWSPTPRCIRVKTCSKSSIDIENGFISESQYTYALKEKAKYQCKLGYVTADGETSGSITCGKDGWSAQPTCIKSCDIPVFMNARTKNDFTWFKLNDTLDYECHDGYESNTGSTTGSIVCGYNGWSDLPICYERECELPKIDVHLVPDRKKDQYKVGEVLKFSCKPGFTIVGPNSVQCYHFGLSPDLPICKEQVQSCGPPPELLNGNVKEKTKEEYGHSEVVEYYCNPRFLMKGPNKIQCVDGEWTTLPVCIVEESTCGDIPELEHGWAQLSSPPYYYGDSVEFNCSESFTMIGHRSITCIHGVWTQLPQCVAIDKLKKCKSSNLIILEEHLKNKKEFDHNSNIRYRCRGKEGWIHTVCINGRWDPEVNCSMAQIQLCPPPPQIPNSHNMTTTLNYRDGEKVSVLCQENYLIQEGEEITCKDGRWQSIPLCVEKIPCSQPPQIEHGTINSSRSSQESYAHGTKLSYTCEGGFRISEENETTCYMGKWSSPPQCEGLPCKSPPEISHGVVAHMSDSYQYGEEVTYKCFEGFGIDGPAIAKCLGEKWSHPPSCIKTDCLSLPSFENAIPMGEKKDVYKAGEQVTYTCATYYKMDGASNVTCINSRWTGRPTCRDTSCVNPPTVQNAYIVSRQMSKYPSGERVRYQCRSPYEMFGDEEVMCLNGNWTEPPQCKDSTGKCGPPPPIDNGDITSFPLSVYAPASSVEYQCQNLYQLEGNKRITCRNGQWSEPPKCLHPCVISREIMENYNIALRWTAKQKLYSRTGESVEFVCKRGYRLSSRSHTLRTTCWDGKLEYPTCAKR
notes: complement factor H (FH), human, 20 CCP modules, plasma-derived; Glycosylated plasma protein; monomer of 155 kDa by SEC-MALS; also called FH; plasma-purified human FH; source: bought: Complement Technologies, plasma-derived, used without further purification
Take B1: the Kd is 490 nM.

B2: recombinant human FH with a wild-type sequence (natural protein)
chain: EDCNELPPRRNTEILTGSWSDQTYPEGTQAIYKCRPGYRSLGNVIMVCRKGEWVALNPLRKCQKRPCGHPGDTPFGTFTLTGGNVFEYGVKAVYTCNEGYQLLGEINYRECDTDGWTNDIPICEVVKCLPVTAPENGKIVSSAMEPDREYHFGQAVRFVCNSGYKIEGDEEMHCSDDGFWSKEKPKCVEISCKSPDVINGSPISQKIIYKENERFQYKCNMGYEYSERGDAVCTESGWRPLPSCEEKSCDNPYIPNGDYSPLRIKHRTGDEITYQCRNGFYPATRGNTAKCTSTGWIPAPRCTLKPCDYPDIKHGGLYHENMRRPYFPVAVGKYYSYYCDEHFETPSGSYWDHIHCTQDGWSPAVPCLRKCYFPYLENGYNQNYGRKFVQGKSIDVACHPGYALPKAQTTVTCMENGWSPTPRCIRVKTCSKSSIDIENGFISESQYTYALKEKAKYQCKLGYVTADGETSGSITCGKDGWSAQPTCIKSCDIPVFMNARTKNDFTWFKLNDTLDYECHDGYESNTGSTTGSIVCGYNGWSDLPICYERECELPKIDVHLVPDRKKDQYKVGEVLKFSCKPGFTIVGPNSVQCYHFGLSPDLPICKEQVQSCGPPPELLNGNVKEKTKEEYGHSEVVEYYCNPRFLMKGPNKIQCVDGEWTTLPVCIVEESTCGDIPELEHGWAQLSSPPYYYGDSVEFNCSESFTMIGHRSITCIHGVWTQLPQCVAIDKLKKCKSSNLIILEEHLKNKKEFDHNSNIRYRCRGKEGWIHTVCINGRWDPEVNCSMAQIQLCPPPPQIPNSHNMTTTLNYRDGEKVSVLCQENYLIQEGEEITCKDGRWQSIPLCVEKIPCSQPPQIEHGTINSSRSSQESYAHGTKLSYTCEGGFRISEENETTCYMGKWSSPPQCEGLPCKSPPEISHGVVAHMSDSYQYGEEVTYKCFEGFGIDGPAIAKCLGEKWSHPPSCIKTDCLSLPSFENAIPMGEKKDVYKAGEQVTYTCATYYKMDGASNVTCINSRWTGRPTCRDTSCVNPPTVQNAYIVSRQMSKYPSGERVRYQCRSPYEMFGDEEVMCLNGNWTEPPQCKDSTGKCGPPPPIDNGDITSFPLSVYAPASSVEYQCQNLYQLEGNKRITCRNGQWSEPPKCLHPCVISREIMENYNIALRWTAKQKLYSRTGESVEFVCKRGYRLSSRSHTLRTTCWDGKLEYPTCAKR
notes: Secreted from P. pastoris, so the native signal peptide is probably absent (surmise); also called rFH; recombinant wild-type FH; source: Pichia pastoris (fermentor), purified after enzymatic deglycosylation
B2 displayed a Kd of 600 nM.

B3: recombinant FH(D1119G) (natural protein)
chain: EDCNELPPRRNTEILTGSWSDQTYPEGTQAIYKCRPGYRSLGNVIMVCRKGEWVALNPLRKCQKRPCGHPGDTPFGTFTLTGGNVFEYGVKAVYTCNEGYQLLGEINYRECDTDGWTNDIPICEVVKCLPVTAPENGKIVSSAMEPDREYHFGQAVRFVCNSGYKIEGDEEMHCSDDGFWSKEKPKCVEISCKSPDVINGSPISQKIIYKENERFQYKCNMGYEYSERGDAVCTESGWRPLPSCEEKSCDNPYIPNGDYSPLRIKHRTGDEITYQCRNGFYPATRGNTAKCTSTGWIPAPRCTLKPCDYPDIKHGGLYHENMRRPYFPVAVGKYYSYYCDEHFETPSGSYWDHIHCTQDGWSPAVPCLRKCYFPYLENGYNQNYGRKFVQGKSIDVACHPGYALPKAQTTVTCMENGWSPTPRCIRVKTCSKSSIDIENGFISESQYTYALKEKAKYQCKLGYVTADGETSGSITCGKDGWSAQPTCIKSCDIPVFMNARTKNDFTWFKLNDTLDYECHDGYESNTGSTTGSIVCGYNGWSDLPICYERECELPKIDVHLVPDRKKDQYKVGEVLKFSCKPGFTIVGPNSVQCYHFGLSPDLPICKEQVQSCGPPPELLNGNVKEKTKEEYGHSEVVEYYCNPRFLMKGPNKIQCVDGEWTTLPVCIVEESTCGDIPELEHGWAQLSSPPYYYGDSVEFNCSESFTMIGHRSITCIHGVWTQLPQCVAIDKLKKCKSSNLIILEEHLKNKKEFDHNSNIRYRCRGKEGWIHTVCINGRWDPEVNCSMAQIQLCPPPPQIPNSHNMTTTLNYRDGEKVSVLCQENYLIQEGEEITCKDGRWQSIPLCVEKIPCSQPPQIEHGTINSSRSSQESYAHGTKLSYTCEGGFRISEENETTCYMGKWSSPPQCEGLPCKSPPEISHGVVAHMSDSYQYGEEVTYKCFEGFGIDGPAIAKCLGEKWSHPPSCIKTDCLSLPSFENAIPMGEKKDVYKAGEQVTYTCATYYKMDGASNVTCINSRWTGRPTCRDTSCVNPPTVQNAYIVSRQMSKYPSGERVRYQCRSPYEMFGDEEVMCLNGNWTEPPQCKDSTGKCGPPPPIDNGGITSFPLSVYAPASSVEYQCQNLYQLEGNKRITCRNGQWSEPPKCLHPCVISREIMENYNIALRWTAKQKLYSRTGESVEFVCKRGYRLSSRSHTLRTTCWDGKLEYPTCAKR
notes: complement factor H, human, full-length, with the aHUS-linked substitution D1119G (CCP 19); Expression-optimized synthetic DNA; Secreted from P. pastoris, so the native signal peptide is probably absent (surmise); also called rFH(D1119G); rFH; source: Pichia pastoris (vector pPICZαB), purified as described for rFH
For the molecule B3, binding was put at a Kd of 540 nM.
